T1: recombinant human IL1RAP ECD (human, UniProt Q9NPH3 21-367)
T1 construct: His-tagged; also called hIL1RAP-ECD; rhuIL1RAP
T1 sequence: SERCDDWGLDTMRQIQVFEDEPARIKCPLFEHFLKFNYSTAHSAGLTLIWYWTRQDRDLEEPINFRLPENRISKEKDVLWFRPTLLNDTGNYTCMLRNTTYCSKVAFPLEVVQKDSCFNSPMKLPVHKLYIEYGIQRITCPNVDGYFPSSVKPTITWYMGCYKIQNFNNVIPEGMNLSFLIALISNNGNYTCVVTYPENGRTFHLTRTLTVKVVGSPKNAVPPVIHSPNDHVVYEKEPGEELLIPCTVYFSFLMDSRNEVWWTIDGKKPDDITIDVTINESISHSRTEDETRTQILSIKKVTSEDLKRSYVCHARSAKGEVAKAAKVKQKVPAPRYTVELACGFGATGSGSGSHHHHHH

T2: recombinant cyno IL1RAP ECD (cynomolgus monkey, UniProt P59822 21-367 (rhesus entry))
T2 construct: also called rcynoIL1RAP
T2 sequence: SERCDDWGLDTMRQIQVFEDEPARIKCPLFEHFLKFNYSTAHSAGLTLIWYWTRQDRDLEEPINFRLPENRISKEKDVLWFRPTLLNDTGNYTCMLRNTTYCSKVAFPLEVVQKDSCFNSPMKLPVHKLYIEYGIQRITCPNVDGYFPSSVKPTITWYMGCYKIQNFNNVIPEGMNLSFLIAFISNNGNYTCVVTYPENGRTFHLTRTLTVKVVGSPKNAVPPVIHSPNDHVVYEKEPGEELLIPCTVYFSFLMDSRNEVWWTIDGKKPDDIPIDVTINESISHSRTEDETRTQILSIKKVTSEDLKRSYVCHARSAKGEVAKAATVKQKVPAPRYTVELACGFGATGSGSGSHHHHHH

T3: mouse IL1RAP ECD displayed on HEK-293F cells (pDisplay) (mouse, UniProt Q61730 21-367)
T3 sequence: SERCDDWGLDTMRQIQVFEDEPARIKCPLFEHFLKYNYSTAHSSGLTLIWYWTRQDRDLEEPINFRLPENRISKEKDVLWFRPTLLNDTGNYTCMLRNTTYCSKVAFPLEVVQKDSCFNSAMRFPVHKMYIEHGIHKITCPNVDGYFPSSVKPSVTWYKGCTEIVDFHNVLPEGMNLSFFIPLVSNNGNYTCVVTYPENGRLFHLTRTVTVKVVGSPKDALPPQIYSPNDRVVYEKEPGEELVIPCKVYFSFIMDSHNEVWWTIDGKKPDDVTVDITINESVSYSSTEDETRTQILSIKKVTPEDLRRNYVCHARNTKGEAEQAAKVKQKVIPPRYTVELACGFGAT

T4: human IL1RAP on cells (endogenous) (human, UniProt Q9NPH3 21-570)
T4 sequence (looked up): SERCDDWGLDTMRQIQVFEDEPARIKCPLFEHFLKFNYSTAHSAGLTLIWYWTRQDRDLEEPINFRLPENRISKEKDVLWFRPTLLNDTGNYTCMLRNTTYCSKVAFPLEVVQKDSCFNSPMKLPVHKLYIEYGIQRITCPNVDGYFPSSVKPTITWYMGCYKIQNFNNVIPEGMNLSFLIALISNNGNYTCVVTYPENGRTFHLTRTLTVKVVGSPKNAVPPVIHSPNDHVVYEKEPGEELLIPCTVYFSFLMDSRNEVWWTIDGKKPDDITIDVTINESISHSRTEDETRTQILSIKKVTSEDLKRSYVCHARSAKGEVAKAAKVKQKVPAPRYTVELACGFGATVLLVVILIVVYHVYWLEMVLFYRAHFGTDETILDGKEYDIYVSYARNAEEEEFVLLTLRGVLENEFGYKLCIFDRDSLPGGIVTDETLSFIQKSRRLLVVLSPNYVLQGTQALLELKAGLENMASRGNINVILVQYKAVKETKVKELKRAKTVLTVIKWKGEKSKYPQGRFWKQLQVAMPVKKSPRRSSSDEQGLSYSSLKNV


Columns and labels:
[1] = target: T1, recombinant human IL1RAP ECD; assay: SPR, summary
[2] = target: T1, recombinant human IL1RAP ECD; assay: SPR (ProteOn)
[3] = target: T1, recombinant human IL1RAP ECD; assay: SPR; KD against parent IAPB54
[4] = target: T1, recombinant human IL1RAP ECD; assay: SPR
[5] = target: T2, recombinant cyno IL1RAP ECD; assay: SPR
[6] = target: T1, recombinant human IL1RAP ECD; assay: SPR; remark: listed apart in the source
[7] = target: T2, recombinant cyno IL1RAP ECD; assay: SPR; remark: listed apart in the source
[8] = target: T1, recombinant human IL1RAP ECD; assay: SPR, summary; remark: listed apart in the source
[9] = target: T2, recombinant cyno IL1RAP ECD; assay: SPR, summary
[10] = target: T3, mouse IL1RAP ECD displayed on HEK-293F …; assay: Murine Binder, summary
[11] = target: T4, human IL1RAP on cells (endogenous); assay: cell-based or functional assay
[12] = target: T1, recombinant human IL1RAP ECD; assay: SPR; human KD over cyno KD

Row | Binder | Kd [1] | Kd [2] | koff [2] | kon [2] | Fold Different from parent [3] | Kd [4] | koff [4] | kon [4] | Kd [5] | koff [5] | kon [5] | Kd [6] | Kd [7] | Kd [8] | Kd [9] | binding result [10] | EC50, T-cell mediated cytotoxicity [11] | Hu/Cyno KD Ratio [12]
1 | IAPB64 (antibody, human IgG4 S228P, lambda, F234A L235A, V domains shown, IgG4-PAA; whole chains; also called IAPB54-LC-C91S) VH: QVQLVQSGSELKKPGASVKVSCKASGYTFNTYAMNWVRQAPGQGLEWMGWINTNTGNPTYAQGFTGRFVFSLDTSVSTAYLQISSLKAEDTAVYYCARRYFDWLLGAFDIWGQGTMVTVSS VL: QSALTQPRSVSGSPGHSVTISCTGTSSDVGDYNYVSWYQQRPGKVPKLLIYDVSKRPSGVPDRFSGSKSGNTASLTISGLQAEDEAIYFCSSYAGNYNVVFGGGTKLTVLG | 0.38 nM | 0.367 nM | 0.000234 s⁻¹ | 638000 M⁻¹ s⁻¹ | 4.7 fold | – | – | – | – | – | – | – | – | – | – | – | – | –
2 | IC3B2 (bispecific antibody, human IgG4 S228P, kappa, lambda, F234A L235A, IgG4-PAA, Fab arm exchange; also called IAPB38 x CD3B220) heavy 1: EVQLVESGGGLVQPGGSLKLSCAASGFTFNTYAMNWVRQASGKGLEWVGRIRSKYNAYATYYAASVKGRFTISRDDSKNTAYLQMNSLKTEDTAVYYCTRHGNFGNSYVSWFAYWGQGTLVTVSSASTKGPSVFPLAPCSRSTSESTAALGCLVKDYFPEPVTVSWNSGALTSGVHTFPAVLQSSGLYSLSSVVTVPSSSLGTKTYTCNVDHKPSNTKVDKRVESKYGPPCPPCPAPEAAGGPSVFLFPPKPKDTLMISRTPEVTCVVVDVSQEDPEVQFNWYVDGVEVHNAKTKPREEQFNSTYRVVSVLTVLHQDWLNGKEYKCKVSNKGLPSSIEKTISKAKGQPREPQVYTLPPSQEEMTKNQVSLTCLVKGFYPSDIAVEWESNGQPENNYKTTPPVLDSDGSFLLYSKLTVDKSRWQEGNVFSCSVMHEALHNHYTQKSLSLSLGK light 1: QAVVTQEPSLTVSPGGTVTLTCRSSTGAVTTSNYANWVQQKPGQAPRGLIGGTNKRAPGTPARFSGSLLGGKAALTLSGAQPEDEAEYYCALWYSNLWVFGGGTKLTVLGQPKAAPSVTLFPPSSEELQANKATLVCLISDFYPGAVTVAWKADSSPVKAGVETTTPSKQSNNKYAASSYLSLTPEQWKSHRSYSCQVTHEGSTVEKTVAPTECS heavy 2: not shown light 2: not shown | – | – | – | – | – | 7.36 nM | 0.000827 s⁻¹ | 112000 M⁻¹ s⁻¹ | 16.9 nM | 0.00223 s⁻¹ | 132000 M⁻¹ s⁻¹ | 7.36 nM | 16.9 nM | 7.36 nM | 16.9 nM | binds | 0.077 nM | 0.4
3 | IC3B10 (bispecific antibody, human IgG4 S228P, kappa, lambda, F234A L235A, IgG4-PAA, Fab arm exchange) heavy 1: EVQLVESGGGLVQPGGSLKLSCAASGFTFNTYAMNWVRQASGKGLEWVGRIRSKYNAYATYYAASVKGRFTISRDDSKNTAYLQMNSLKTEDTAVYYCTRHGNFGNSYVSWFAYWGQGTLVTVSSASTKGPSVFPLAPCSRSTSESTAALGCLVKDYFPEPVTVSWNSGALTSGVHTFPAVLQSSGLYSLSSVVTVPSSSLGTKTYTCNVDHKPSNTKVDKRVESKYGPPCPPCPAPEAAGGPSVFLFPPKPKDTLMISRTPEVTCVVVDVSQEDPEVQFNWYVDGVEVHNAKTKPREEQFNSTYRVVSVLTVLHQDWLNGKEYKCKVSNKGLPSSIEKTISKAKGQPREPQVYTLPPSQEEMTKNQVSLTCLVKGFYPSDIAVEWESNGQPENNYKTTPPVLDSDGSFLLYSKLTVDKSRWQEGNVFSCSVMHEALHNHYTQKSLSLSLGK light 1: QAVVTQEPSLTVSPGGTVTLTCRSSTGAVTTSNYANWVQQKPGQAPRGLIGGTNKRAPGTPARFSGSLLGGKAALTLSGAQPEDEAEYYCALWYSNLWVFGGGTKLTVLGQPKAAPSVTLFPPSSEELQANKATLVCLISDFYPGAVTVAWKADSSPVKAGVETTTPSKQSNNKYAASSYLSLTPEQWKSHRSYSCQVTHEGSTVEKTVAPTECS heavy 2: not shown light 2: not shown | – | – | – | – | – | 4.77 nM | – | – | – | – | – | 4.77 nM | – | 4.77 nM | – | binds | 0.124 nM | –
4 | IC3B7 (bispecific antibody, human IgG4 S228P, kappa, lambda, F234A L235A, IgG4-PAA, Fab arm exchange; also called IAPB17 x CD3B220) heavy 1: EVQLVESGGGLVQPGGSLKLSCAASGFTFNTYAMNWVRQASGKGLEWVGRIRSKYNAYATYYAASVKGRFTISRDDSKNTAYLQMNSLKTEDTAVYYCTRHGNFGNSYVSWFAYWGQGTLVTVSSASTKGPSVFPLAPCSRSTSESTAALGCLVKDYFPEPVTVSWNSGALTSGVHTFPAVLQSSGLYSLSSVVTVPSSSLGTKTYTCNVDHKPSNTKVDKRVESKYGPPCPPCPAPEAAGGPSVFLFPPKPKDTLMISRTPEVTCVVVDVSQEDPEVQFNWYVDGVEVHNAKTKPREEQFNSTYRVVSVLTVLHQDWLNGKEYKCKVSNKGLPSSIEKTISKAKGQPREPQVYTLPPSQEEMTKNQVSLTCLVKGFYPSDIAVEWESNGQPENNYKTTPPVLDSDGSFLLYSKLTVDKSRWQEGNVFSCSVMHEALHNHYTQKSLSLSLGK light 1: QAVVTQEPSLTVSPGGTVTLTCRSSTGAVTTSNYANWVQQKPGQAPRGLIGGTNKRAPGTPARFSGSLLGGKAALTLSGAQPEDEAEYYCALWYSNLWVFGGGTKLTVLGQPKAAPSVTLFPPSSEELQANKATLVCLISDFYPGAVTVAWKADSSPVKAGVETTTPSKQSNNKYAASSYLSLTPEQWKSHRSYSCQVTHEGSTVEKTVAPTECS heavy 2: not shown light 2: not shown | – | – | – | – | – | 6.1 nM | 0.00659 s⁻¹ | 1.08e+06 M⁻¹ s⁻¹ | 4.74 nM | 0.00583 s⁻¹ | 1.23e+06 M⁻¹ s⁻¹ | 6.1 nM | 4.74 nM | 6.1 nM | 4.74 nM | binds | 3.4 nM | 1.3
5 | IC3B11 (bispecific antibody, human IgG4 S228P, kappa, lambda, F234A L235A, IgG4-PAA, Fab arm exchange; also called IAPB9 x CD3B220) heavy 1: EVQLVESGGGLVQPGGSLKLSCAASGFTFNTYAMNWVRQASGKGLEWVGRIRSKYNAYATYYAASVKGRFTISRDDSKNTAYLQMNSLKTEDTAVYYCTRHGNFGNSYVSWFAYWGQGTLVTVSSASTKGPSVFPLAPCSRSTSESTAALGCLVKDYFPEPVTVSWNSGALTSGVHTFPAVLQSSGLYSLSSVVTVPSSSLGTKTYTCNVDHKPSNTKVDKRVESKYGPPCPPCPAPEAAGGPSVFLFPPKPKDTLMISRTPEVTCVVVDVSQEDPEVQFNWYVDGVEVHNAKTKPREEQFNSTYRVVSVLTVLHQDWLNGKEYKCKVSNKGLPSSIEKTISKAKGQPREPQVYTLPPSQEEMTKNQVSLTCLVKGFYPSDIAVEWESNGQPENNYKTTPPVLDSDGSFLLYSKLTVDKSRWQEGNVFSCSVMHEALHNHYTQKSLSLSLGK light 1: QAVVTQEPSLTVSPGGTVTLTCRSSTGAVTTSNYANWVQQKPGQAPRGLIGGTNKRAPGTPARFSGSLLGGKAALTLSGAQPEDEAEYYCALWYSNLWVFGGGTKLTVLGQPKAAPSVTLFPPSSEELQANKATLVCLISDFYPGAVTVAWKADSSPVKAGVETTTPSKQSNNKYAASSYLSLTPEQWKSHRSYSCQVTHEGSTVEKTVAPTECS heavy 2: not shown light 2: not shown | – | – | – | – | – | 4.56 nM | 0.00354 s⁻¹ | 776000 M⁻¹ s⁻¹ | 5.27 nM | 0.00409 s⁻¹ | 776000 M⁻¹ s⁻¹ | 4.56 nM | 5.27 nM | 4.56 nM | 5.27 nM | binds | 1.32 nM | 0.9

Reference: patent publication US20190270826A1 (Janssen / Centocor, published 2019)
